Measurements taken from patent US20250277037A1 (UNIVERSITY OF UTAH RESEARCH FOUNDATION, published 2025).

B1: D-αPD-1 (depleting anti-mouse PD-1 antibody; RMP1-14 variable domains on mouse IgG2a heavy and mouse κ light constant domains) (antibody)
heavy: EVQLQESGPGLVKPSQSLSLTCSVTGYSITSSYRWNWIRKFPGNRLEWMGYINSAGISNYNPSLKRRISITRDTSKNQFFLQVNSVTTEDAATYYCARSDNMGTTPFTYWGQGTLVTVSSAKTTAPSVYPLAPVCGDTTGSSVTLGCLVKGYFPEPVTLTWNSGSLSSGVHTFPAVLQSDLYTLSSSVTVTSSTWPSQSITCNVAHPASSTKVDKKIEPRGPTIKPCPPCKCPAPNLLGGPSVFIFPPKIKDVLMISLSPIVTCVVVDVSEDDPDVQISWFVNNVEVHTAQTQTHREDYNSTLRVVSALPIQHQDWMSGKEFKCKVNNKDLPAPIERTISKPKGSVRAPQVYVLPPPEEEMTKKQVTLTCMVTDFMPEDIYVEWTNNGKTELNYKNTEPVLDSDGSYFMYSKLRVEKKNWVERNSYSCSVVHEGLHNHHTTKSFSRTPGK
light: DIVMTQGTLPNPVPSGESVSITCRSSKSLLYSDGKTYLNWYLQRPGQSPQLLIYWMSTRASGVSDRFSGSGSGTDFTLKISGVEAEDVGIYYCQQGLEFPTFGGGTKLELKRADAAPTVSIFPPSSEQLTSGGASVVCFLNNFYPKDINVKWKIDGSERQNGVLNSWTDQDSKDSTYSMSSTLTLTKDEYERHNSYTCEATHKTSTSPIVKSFNRNEC
notes: also called anti-αPD-1 antibody; anti-PD-1 antibody 1

Tests used:
[1] = biological target: mouse FcγRIV on RAW 264.7 macrophage cells (mouse); experiment: flow cytometry, Alexa-647-labelled antibody at 4 µg/mL on RAW 264.7 cells, 4 °C 30 min (medium control 188.3)
[2] = biological target: mouse PD-1 (programmed death-1, CD279) on EL4 cells (mouse) (UniProt Q02242); experiment: flow cytometry on PD-1+ EL4 cells, incubation on ice (4 °C) for 30 min, detection with PE anti-mouse IgG2a; medium control without antibody given as 70.0
Chain of mouse PD-1 (programmed death-1, CD279) on EL4 cells (mouse) (Q02242 25-288): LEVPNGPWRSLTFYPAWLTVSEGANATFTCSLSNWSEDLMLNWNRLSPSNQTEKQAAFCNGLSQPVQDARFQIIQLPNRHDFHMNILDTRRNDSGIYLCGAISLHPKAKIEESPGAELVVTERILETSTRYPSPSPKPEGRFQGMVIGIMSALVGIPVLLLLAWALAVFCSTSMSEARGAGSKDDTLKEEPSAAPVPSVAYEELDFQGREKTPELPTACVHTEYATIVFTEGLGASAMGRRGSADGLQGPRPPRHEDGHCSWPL

[3] = biological target: mouse FcγRIV on RAW 264.7 macrophage cells (mouse); experiment: competition, flow cytometry on RAW 264.7 cells; 25 and 250 µg/mL, not concentration-dependent; competitor PE anti-mouse FcγRIV (9E9)
[4] = biological target: mouse FcγRIV on RAW 264.7 macrophage cells (mouse); experiment: competition by flow cytometry on RAW 264.7 cells: preincubation with the antibody at 4 °C for 30 min, then staining with PE anti-mouse FcγRIV (clone 9E9); inhibition relative to cells without antibody
[5] = biological target: T1, mouse FcγRIV on RAW 264.7 macrophage cells (mouse, UniProt A0A0B4J1G0 21-249); experiment: flow cytometry, Alexa-647-labelled antibody at 4 µg/mL on RAW 264.7 cells, 4 °C 30 min; reference: cells in the medium control
T1 construct: also called RAW 264.7 cells
T1 sequence: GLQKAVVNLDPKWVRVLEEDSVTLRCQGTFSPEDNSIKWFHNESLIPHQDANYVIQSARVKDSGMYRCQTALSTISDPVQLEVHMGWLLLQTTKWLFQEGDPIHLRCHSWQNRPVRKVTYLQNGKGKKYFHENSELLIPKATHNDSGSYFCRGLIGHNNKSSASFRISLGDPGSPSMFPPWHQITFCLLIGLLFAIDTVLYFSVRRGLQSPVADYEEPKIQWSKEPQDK
Experimental: ADCP was the next mechanism that was investigated. Before evaluating D-αPD-1-mediated ADCP by macrophages, the binding between D-αPD-1 and macrophages was investigated since the binding is the prerequisite of ADCP. Here, RAW 264.7 cells were incubated with Alexa-647-labeled D-αPD-1, isotype control, or the medium control. Then, the bound antibodies were analyzed by flow cytometry (FIG. 5A).

Molecule	percent inhibition of anti-mouse FcγRIV antibody binding [3] [%]	Inhibition (%) at 25 µg/mL [4] [%]	Inhibition (%) at 250 µg/mL [4] [%]	also measured
mouse IgG2a isotype control (antibody)	–	–	–	MFI [1]: 213 MFI; MFI at 0.1 µg/mL [2]: 95.4; MFI at 1 µg/mL [2]: 125; MFI at 10 µg/mL [2]: 433
B-αPD-1 (anti-mouse PD-1 blocking antibody, clone RMP1-14, a rat IgG)	10	10.5	6.7	–
goat IgG control (antibody)	10	4	4.3	–
B1	–	–	–	fold MFI over medium control [5]: ~3 fold
